According to PMC314469, “Protein Interaction Networks by Proteome Peptide Scanning” (PLoS Biology, 2004):

T1: Abp1 SH3 (ABP1_YEAST), P15891
T1 chain: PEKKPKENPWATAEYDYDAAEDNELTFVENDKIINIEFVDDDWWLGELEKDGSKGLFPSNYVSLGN


Biological target: T1, Abp1 SH3 (ABP1_YEAST), P15891
Assay: SPOT array

Binder | normalised SPOT signal, Boehringer light units (BLU); mean over the file's lines of this peptide
YDNKVEEGSKPKKP [YOR168W 668-681] | 140
AAPNSNVPTNERP [YGL122C 485-497] | 146
YKDSFYKEMTPSKP [YOR177C 24-37] | 164
YKPWSAWSYLPPKP [YDL035C 229-242] | 208
YYVLNPNNKQPIKP [YNL076W 85-98] | 82.3
YASALKEMTHPIKP [YLR239C 24-37] | 34.2
YYNDLSYYLRPIKP [Q0115 375-388] | 128
YIRNAVKENFPEKP [YBR137W 45-58] | 118
AAYNAKKAAKPAKP [YAL003W 104-117] | 109
YASPMYDFLYPFRP [YOR002W 18-31] | 179
YFTSSYFPDDRRP [YKL004W 102-114] | 304
AAAPDVKPHDTKP [YPR125W 432-444] | 45.6
AAADSVSPDSQRP [YLL027W 53-65] | 182
YKWTIPQPIGRRP [YGR238C 182-194] | 3200
WTLNKDKIAHPVRP [YBR276C 624-637] | 1090
YFPSKTVGSHPRKP [YPL162C 135-148] | 311
YPQMLALPIARRP [YBL022C 179-191] | 8030

Continued, values first:

normalised SPOT signal, Boehringer light units (BLU); mean over the file's lines of this peptide | Binder
1300 | YKWTVPAPVGPRP [YHR158C 222-234]
59.8 | YYRELLSFLSPGKP [YML005W 156-169]
223 | YNPYGISPNHARP [YJR059W 184-196]
62.3 | YEATPFDPITVKP [YNL330C 3-15]
155 | YQKTFKLPWDPRP [YBL086C 310-322]
145 | YTNMNSLVATPMKP [YHR015W 541-554]
219 | YYRLDALPKDGKP [YGL245W 693-705]
114 | YKVYFSTPRDVKP [YBR024W 225-237]
15.5 | YNESAPLQPFPERP [YFL041W 454-467]
275 | YNYSFQFDKFPRKP [YLR392C 110-123]
37 | YDVIEVVPEPGKP [YDR301W 1057-1069]
138 | YRVYFSTPPNVKP [YBR037C 219-231]
144 | YYSASPLPASKRP [YMR108W 43-55]
113 | YEHLTSVKIVPQRP [YAL054C 40-53]
100 | YAEILKNRMNPEKP [YBL034C 847-860]
60.6 | AAAAPPLPSDVRP [YDR159W 245-257]
1840 | YSRQAIPPPVPNRP [YLR144C 3-16]
243 | AAVPTKTIASPQRP [YOR227W 52-65]
532 | YTPTSSQPRPPPRP [YGR268C 67-80]
211 | YYVSKRVPVKNRP [YNL023C 118-130]
86.6 | AAELGNNALPPTKP [YNR046W 63-76]
64 | YRLLRLLPHASRP [YOR267C 685-697]
140 | YTDNDDYPELDRP [YOR292C 157-169]
179 | YLNESFVMQQPIKP [YGR067C 417-430]
70.4 | YVTFTTIPYKEKP [YCL058C 12-24]
